Source: PMC4871701, “Release of GTP Exchange Factor Mediated Down-Regulation of Abscisic Acid Signal Transduction through ABA-Induced Rapid Degradation of RopGEFs” (PLoS Biology, 2016)

T1: GST-GEF1 (Arabidopsis thaliana, UniProt Q93ZY2 1-548)
T1 construct: RopGEF1 (GEF1), Arabidopsis thaliana; also called GST-tagged GEF1; GST-RopGEF1; source: E. coli Rosetta (DE3) pLysS, purified (Glutathione Sepharose); not shown: GST, N-terminal, kept
T1 sequence (looked up): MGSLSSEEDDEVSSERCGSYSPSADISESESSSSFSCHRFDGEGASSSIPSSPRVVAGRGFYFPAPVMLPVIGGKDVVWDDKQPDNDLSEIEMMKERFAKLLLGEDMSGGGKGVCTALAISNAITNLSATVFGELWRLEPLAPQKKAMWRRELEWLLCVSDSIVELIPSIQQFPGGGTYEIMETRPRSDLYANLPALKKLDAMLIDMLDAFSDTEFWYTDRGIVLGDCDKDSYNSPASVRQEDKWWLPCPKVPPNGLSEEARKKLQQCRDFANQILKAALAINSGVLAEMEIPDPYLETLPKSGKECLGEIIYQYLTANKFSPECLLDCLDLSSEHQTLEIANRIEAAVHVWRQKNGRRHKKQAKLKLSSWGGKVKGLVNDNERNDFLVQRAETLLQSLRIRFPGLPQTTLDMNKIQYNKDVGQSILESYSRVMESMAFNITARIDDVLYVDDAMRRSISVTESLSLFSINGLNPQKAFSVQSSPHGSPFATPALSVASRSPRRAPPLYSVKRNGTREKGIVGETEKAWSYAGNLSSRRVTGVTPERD


Biological target: T1, GST-GEF1
Experiment: pull-down; GST-GEF1 on Glutathione Sepharose beads as bait, StrepII-tagged input proteins; bound proteins detected by blot for Strep-II
Conditions: both partners purified

| binding result | Binder |
| --- | --- |
| binds | StrepII-ABI1 (enzyme, Arabidopsis thaliana, UniProt P49597 1-434, looked up, ABI1, type 2C protein phosphatase, Arabidopsis thaliana; also called Strep-II tagged ABI1; source: E. coli Rosetta (DE3) pLysS, purified (Strep-Tactin resin); not shown: Strep-II, N-terminal, kept) MEEVSPAIAGPFRPFSETQMDFTGIRLGKGYCNNQYSNQDSENGDLMVSLPETSSCSVSGSHGSESRKVLISRINSPNLNMKESAAADIVVVDISAGDEINGSDITSEKKMISRTESRSLFEFKSVPLYGFTSICGRRPEMEDAVSTIPRFLQSSSGSMLDGRFDPQSAAHFFGVYDGHGGSQVANYCRERMHLALAEEIAKEKPMLCDGDTWLEKWKKALFNSFLRVDSEIESVAPETVGSTSVVAVVFPSHIFVANCGDSRAVLCRGKTALPLSVDHKPDREDEAARIEAAGGKVIQWNGARVFGVLAMSRSIGDRYLKPSIIPDPEVTAVKRVKEDDCLILASDGVWDVMTDEEACEMARKRILLWHKKNAVAGDASLLADERRKEGKDPAAMSAAEYLSKLAIQRGSKDNISVVVVDLKPRRKLKSKPLN |
| binds | StrepII-ROP11 (natural protein, ROP11, ROP/RAC small GTPase, Arabidopsis thaliana; also called Strep-II tagged ROP11; source: E. coli Rosetta (DE3) pLysS, purified (Strep-Tactin resin); not shown: Strep-II, N-terminal, kept) not shown |
